# Patent US20230014398A1 (University of Texas, published 2023)
# T1: Human 4Ig-B7-H3 extracellular domain (human, UniProt Q5ZPR3 29-466)
# T1 construct: extracellular domain
# T1 sequence (looked up): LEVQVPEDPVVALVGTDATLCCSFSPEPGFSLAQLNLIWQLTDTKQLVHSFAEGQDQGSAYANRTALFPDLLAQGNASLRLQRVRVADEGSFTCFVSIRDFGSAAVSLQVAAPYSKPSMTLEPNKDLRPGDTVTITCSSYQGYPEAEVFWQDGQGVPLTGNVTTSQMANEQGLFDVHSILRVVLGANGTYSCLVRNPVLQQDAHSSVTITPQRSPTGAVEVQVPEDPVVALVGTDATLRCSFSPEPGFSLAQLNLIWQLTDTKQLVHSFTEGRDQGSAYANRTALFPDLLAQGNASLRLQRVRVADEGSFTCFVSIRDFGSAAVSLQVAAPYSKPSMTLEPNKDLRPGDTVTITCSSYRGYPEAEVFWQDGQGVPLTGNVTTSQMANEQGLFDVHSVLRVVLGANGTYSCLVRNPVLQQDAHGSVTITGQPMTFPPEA
# T2: Mouse 2Ig-B7-H3 extracellular domain (mouse, UniProt Q8VE98 29-248)
# T2 construct: extracellular domain; Purchased recombinant extracellular domain; also called murine 2Ig-B7-H3
# T2 sequence (looked up): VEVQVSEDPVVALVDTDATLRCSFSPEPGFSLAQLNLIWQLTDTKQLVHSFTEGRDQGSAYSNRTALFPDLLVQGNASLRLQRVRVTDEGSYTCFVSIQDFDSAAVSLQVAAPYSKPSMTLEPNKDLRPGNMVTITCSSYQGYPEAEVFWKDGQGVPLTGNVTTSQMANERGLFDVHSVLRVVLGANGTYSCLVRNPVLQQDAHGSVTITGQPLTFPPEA
# T3: Human 2Ig-B7-H3 extracellular domain (human, UniProt Q5ZPR3 29-466)
# T3 chain: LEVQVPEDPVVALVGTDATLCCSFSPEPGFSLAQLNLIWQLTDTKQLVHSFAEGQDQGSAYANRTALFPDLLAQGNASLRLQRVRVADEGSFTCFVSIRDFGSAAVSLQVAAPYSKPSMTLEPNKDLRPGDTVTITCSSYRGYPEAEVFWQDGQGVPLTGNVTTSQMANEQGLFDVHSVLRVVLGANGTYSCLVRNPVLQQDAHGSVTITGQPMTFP
# T4: Murine 2Ig-B7-H3 expressed on cells (mouse, UniProt Q8VE98 29-316)
# T4 construct: whole, on cells; also called murine B7-H3 expressed on tumor cells; 2Ig-B7-H3 on Pan02 and 4T1 cells
# T4 sequence (looked up): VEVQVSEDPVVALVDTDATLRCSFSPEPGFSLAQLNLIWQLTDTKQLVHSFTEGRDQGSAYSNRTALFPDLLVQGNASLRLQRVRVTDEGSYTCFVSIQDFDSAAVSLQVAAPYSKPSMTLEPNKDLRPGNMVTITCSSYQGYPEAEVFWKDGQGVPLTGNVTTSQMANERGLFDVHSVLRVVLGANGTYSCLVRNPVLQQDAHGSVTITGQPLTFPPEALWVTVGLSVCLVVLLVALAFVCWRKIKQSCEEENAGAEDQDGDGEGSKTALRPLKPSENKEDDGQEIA
# T5: Human 4Ig-B7-H3 expressed on cells (human, UniProt Q5ZPR3 29-534)
# T5 construct: whole, on cells; also called native 4Ig-B7-H3 on HeLa and HCT116 cells; human 4Ig-B7-H3 on transduced 4T1, B16F10 and L cells
# T5 sequence (looked up): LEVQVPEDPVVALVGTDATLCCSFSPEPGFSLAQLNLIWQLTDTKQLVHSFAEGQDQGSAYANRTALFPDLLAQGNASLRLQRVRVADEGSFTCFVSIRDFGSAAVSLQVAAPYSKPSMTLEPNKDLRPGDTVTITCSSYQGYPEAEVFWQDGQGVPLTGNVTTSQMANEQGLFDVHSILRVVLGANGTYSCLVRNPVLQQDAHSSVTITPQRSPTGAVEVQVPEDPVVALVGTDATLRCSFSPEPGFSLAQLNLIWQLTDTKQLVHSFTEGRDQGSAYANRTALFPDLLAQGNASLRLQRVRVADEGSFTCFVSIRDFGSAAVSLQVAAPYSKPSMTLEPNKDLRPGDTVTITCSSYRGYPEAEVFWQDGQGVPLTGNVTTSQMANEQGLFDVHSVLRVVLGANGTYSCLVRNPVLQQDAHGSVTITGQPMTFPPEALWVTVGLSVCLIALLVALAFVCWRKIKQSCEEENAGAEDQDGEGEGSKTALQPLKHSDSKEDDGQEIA
# B1: MIL33B monoclonal antibody (antibody, IgG2a, V domains shown)
# VH: EVQLQQSGPELVKPGASVKMSCKASGYTFTSYVMHWVRQSPGQGLEGIGYINSYSDGTKYNEKFKGKATLTSDKSSSTAYMELSGLTSEDSAVYYCARWGGLGNGAMDYWGQGTSVTVSS
# VL: QIVLTQSPAIMSASPGEKVTMTCSVSSSVNYMHWYQQKSGTSPKRWIYDTSKLASGVPARFSASGSGTSYSLTISSMEAEDAATYYCQQWTSNPLTFGAGTKLELK
# notes: Mouse hybridoma antibody from an NZBWF1/J mouse; constant regions are not; also called MIL33B mAb; MIL33B antibody
# B2: MIL33B conjugated with DFO and radiolabeled with 89Zr (antibody, mouse IgG2a, V domains shown)
# VH: B1 VH
# VL: B1 VL
# modifications: DFO chelator with 89Zr on the antibody, residues not stated
# notes: also called MIL33B-DFO; radiolabeled MIL33B antibody
# B3: Flagellin-conjugated MIL33B (other)
# VH: B1 VH
# VL: B1 VL
# modifications: MIL33B (mouse IgG2a) is chemically conjugated to purified flagellin through a commercial linker kit. Attachment sites and the number of flagellins per antibody are not stated, and the letters cannot carry them.
# notes: Chemical conjugate of MIL33B (mouse IgG2a) and flagellin; also called MIL33B-flgn conjugate; MIL33B-flagellin conjugate; not shown: Flagellin (purified, InvivoGen)
# B4: MIL33B labeled with Alexa594 fluorophore (antibody, V domains shown)
# VH: B1 VH
# VL: B1 VL
# modifications: Alexa594 fluorophore on the antibody, residues not stated
# notes: also called MIL33B-A594; Alexa594-labeled MIL33B
# Tests used:
# TLR5 on HCT116 cells = TLR5 on HCT116 cells (UniProt O60602); experiment: cell-based or functional assay
# TLR5 on HCT116 cells, sequence (O60602 21-858 limits assumed): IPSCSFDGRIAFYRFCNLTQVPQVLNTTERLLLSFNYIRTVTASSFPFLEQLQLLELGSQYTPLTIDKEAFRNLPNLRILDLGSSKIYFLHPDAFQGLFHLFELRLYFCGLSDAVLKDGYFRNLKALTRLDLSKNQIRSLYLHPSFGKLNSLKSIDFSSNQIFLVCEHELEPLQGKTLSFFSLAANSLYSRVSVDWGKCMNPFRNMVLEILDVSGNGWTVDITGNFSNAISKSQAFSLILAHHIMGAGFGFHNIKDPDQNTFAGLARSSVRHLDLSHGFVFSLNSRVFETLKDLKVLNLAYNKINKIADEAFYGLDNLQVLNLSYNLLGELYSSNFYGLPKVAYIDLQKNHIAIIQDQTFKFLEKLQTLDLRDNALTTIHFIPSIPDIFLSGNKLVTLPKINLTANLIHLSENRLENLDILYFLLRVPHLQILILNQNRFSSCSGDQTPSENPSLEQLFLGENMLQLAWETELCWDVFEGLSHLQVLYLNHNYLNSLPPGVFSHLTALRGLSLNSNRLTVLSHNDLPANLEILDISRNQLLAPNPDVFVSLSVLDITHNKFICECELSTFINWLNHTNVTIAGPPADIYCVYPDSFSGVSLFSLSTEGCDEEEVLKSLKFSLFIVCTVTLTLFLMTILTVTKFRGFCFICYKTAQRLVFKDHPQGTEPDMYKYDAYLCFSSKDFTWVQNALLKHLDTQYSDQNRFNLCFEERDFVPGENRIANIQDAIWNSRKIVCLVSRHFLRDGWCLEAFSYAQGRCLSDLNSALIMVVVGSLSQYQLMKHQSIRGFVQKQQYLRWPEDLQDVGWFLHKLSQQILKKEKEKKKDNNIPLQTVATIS
# [1] = biological target: T1, Human 4Ig-B7-H3 extracellular domain; experiment: biolayer interferometry (Octet), comparison of Kd values of Table 6
# From the text: (§1) The extracellular domains of the indicated B7 family proteins were purchased from R&D Systems. All proteins were validated by the vendor to be both pure and functional.
# [2] = biological target: T2, Mouse 2Ig-B7-H3 extracellular domain; experiment: ratio of Kd values, told as the reason for using 100 ug/mL MIL33B-A594 on Pan02 cells
# [3] = biological target: T1, Human 4Ig-B7-H3 extracellular domain; experiment: ELISA, extracellular domain plated on 96-well plates, MIL33B titrated, absorbance read
# From the text: The extracellular domains of human 4Ig-B7-H3 and murine 2Ig-B7-H3 were purchased and plated down onto 96-well plates. […] Plates were then washed and assessed for antibody binding through absorbance measurements.
# [4] = biological target: T3, Human 2Ig-B7-H3 extracellular domain; experiment: biolayer interferometry (Octet), MIL33B captured on the probe, extracellular domain in solution
# Method: (§2) Dissociation constants, Kd, were determined utilizing biolayer interferometry (Octet) assays. […] The surface is then placed into a solution of analyte and the phase shift indicating binding was measured over time. The probe was then moved into a solution without analyte and the time course of off-binding was measured. This cycle was repeated for multiple analyte concentrations, and the Kd was calculated from global curve fitting of the concentration- and time-dependence of the analyte binding to the antibody.
# as §1
# [5] = biological target: T1, Human 4Ig-B7-H3 extracellular domain; experiment: as above
# Method: as §2, §1
# [6] = biological target: T2, Mouse 2Ig-B7-H3 extracellular domain; experiment: as above
# Method: as §2, §1
# [7] = biological target: T4, Murine 2Ig-B7-H3 expressed on cells; experiment: PET imaging in mice with 4T1 or B16F10 tumors carrying the negative (empty) vector, with endogenous murine 2Ig-B7-H3 only, 24 and 72 hr after injection
# From the text: (§3) Immune competent mice bearing subcutaneous 4T1 tumors expressing human 4Ig-B7-H3 or negative vector (see Western blots in FIG. 3) were utilized. […] Similarly, B16F10 cells were transduced with human 4Ig-B7-H3 or empty vector. These cells have less endogenous murine 2Ig-B7H3 than 4T1 tumors.
# [8] = biological target: T5, Human 4Ig-B7-H3 expressed on cells; experiment: in vivo PET of 89Zr-DFO-labeled antibody in mice bearing 4T1 or B16F10 tumors with human 4Ig-B7-H3 or vector control, %ID/cc of tumor VOIs at 24 and 72 hr
# From the text: as §3
# [9] = biological target: T1, Human 4Ig-B7-H3 extracellular domain; experiment: ELISA
# [10] = biological target: T5, Human 4Ig-B7-H3 expressed on cells; experiment: live cell immunofluorescence microscopy on 4T1 cells transduced with human 4Ig-B7-H3, labeled antibody at 1 µg/mL
# From the text: Murine breast tumor, 4T1 cells (ATCC), were stably transduced with human 4Ig-B7-H3 or empty vector using lentiviral constructs.
# (§4) Cells were washed and imaged by fluorescence microscopy (TiE, Nikon).
# [11] = biological target: T4, Murine 2Ig-B7-H3 expressed on cells; experiment: live cell immunofluorescence microscopy on Pan02 cells, MIL33B-A594 at 100 µg/mL; one panel blocked with unlabeled MIL33B
# From the text: as §4
molecule,measurement,setting,value
Purified flagellin (ligand),activation of NF-kB (kB-RE5-IkBa-Fluc reporter in HCT116 cells),TLR5 on HCT116 cells,1.8 nM
B1,fold better binding than to other B7 family members,[1],≥ 1000 fold
same,fold shift in Kd from human 4Ig-B7-H3 to murine 2Ig-B7-H3,[2],~100 fold
same,EC50 (read off the curve),[3],~100 pM
same,Kd,[4],580 pM
same,Kd,[5],72.3 pM
same,Kd,[6],41100 pM
B2,binding result,[7],binds
same,binding result,[8],binds
B3,EC50,[9],36000 pM
B4,binding result,[10],binds
same,binding result,[11],binds
